Experiments:
[1] = target: RBBP4 Glu126Ala/Asn128Ala/Glu179Ala (UniProt Q09028); experiment: ITC; AEBP2 ZF1–3 titrated into RBBP4; one-site binding model, Origin 7
[2] = target: RBBP4, full-length, wild type (UniProt Q09028); experiment: as above
Chain of RBBP4, full-length, wild type (Q09028 whole entry): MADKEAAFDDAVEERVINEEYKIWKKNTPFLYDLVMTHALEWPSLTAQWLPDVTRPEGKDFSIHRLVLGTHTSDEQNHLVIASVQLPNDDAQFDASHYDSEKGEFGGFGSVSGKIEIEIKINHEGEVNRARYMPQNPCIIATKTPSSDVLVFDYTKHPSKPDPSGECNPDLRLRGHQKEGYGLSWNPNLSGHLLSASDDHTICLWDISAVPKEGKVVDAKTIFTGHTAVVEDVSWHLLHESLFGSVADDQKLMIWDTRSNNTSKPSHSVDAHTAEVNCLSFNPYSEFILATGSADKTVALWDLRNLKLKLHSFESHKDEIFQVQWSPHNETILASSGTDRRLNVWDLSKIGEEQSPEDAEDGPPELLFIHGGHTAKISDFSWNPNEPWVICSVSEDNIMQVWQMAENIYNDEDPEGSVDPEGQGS

Chain of RBBP4 Glu126Ala/Asn128Ala/Glu179Ala (Q09028 whole entry E126A/N128A/E179A): as the sequence (Q09028 whole entry) above, with E126A, N128A, E179A counted along it

Kd [1]: 16 µM
Kd [2]: 10.1 µM
Substance: AEBP2 ZF1–3 (three zinc fingers, residues Asn258–Gln357) (domain or fragment)
